Assay results taken from US20190031781A1.

Experiments:
[1] = molecular target: carboxymethyl lysine conjugated to keyhole limpet hemocyanin (CML-KLH); test: direct binding ELISA, CML-KLH coat 1 ug/mL, antibody at 0.62 ug/mL
[2] = molecular target: carboxymethyl lysine conjugated to keyhole limpet hemocyanin (CML-KLH); test: direct binding ELISA, CML-KLH coat 1 ug/mL, antibody at 1.85 ug/mL
[3] = molecular target: carboxymethyl lysine conjugated to keyhole limpet hemocyanin (CML-KLH); test: direct binding ELISA, CML-KLH coat 1 ug/mL, antibody at 50 ug/mL
[4] = molecular target: carboxymethyl lysine conjugated to keyhole limpet hemocyanin (CML-KLH); test: direct binding ELISA, CML-KLH coat 1 ug/mL, antibody at 0.21 ug/mL
[5] = molecular target: carboxymethyl lysine conjugated to keyhole limpet hemocyanin (CML-KLH); test: direct binding ELISA, CML-KLH coat 1 ug/mL, antibody at 5.56 ug/mL
[6] = molecular target: carboxymethyl lysine conjugated to keyhole limpet hemocyanin (CML-KLH); test: direct binding ELISA, CML-KLH coat 1 ug/mL, antibody at 16.67 ug/mL
[7] = molecular target: carboxymethyl lysine conjugated to keyhole limpet hemocyanin (CML-KLH); test: direct binding ELISA, CML-KLH coat 1 ug/mL, antibody at 0.07 ug/mL

OD450 [1]: 0.083
OD450 [2]: 0.092
OD450 [3]: 0.462
OD450 [4]: 0.075
OD450 [5]: 0.165
OD450 [6]: 0.312
OD450 [7]: 0.086
Substance: carboxymethyl lysine MAb (Clone 318003), R&D Systems, catalog no. MAB3247 (antibody)
